Measured values taken from US20030113774A1.

How the values were obtained:
[1] = molecular target: pGal4-AD-SV40 (control plasmid, SV40 protein fused to Gal4-AD) (UniProt P03070); experiment: yeast two-hybrid, quantitative liquid β-galactosidase assay (positive control pair)
[2] = molecular target: pGal4-AD-p53-1 (p53 clone 1 from the mouse embryonic cDNA library, fused to Gal4-AD) (mouse) (UniProt P02340); experiment: yeast two-hybrid, quantitative liquid β-galactosidase assay
[3] = molecular target: pGal4-AD-p53-2 (p53 clone 2 from the mouse embryonic cDNA library, fused to Gal4-AD) (mouse) (UniProt P02340); experiment: as above

Sequence of UniProt P03070 (P03070 84-708): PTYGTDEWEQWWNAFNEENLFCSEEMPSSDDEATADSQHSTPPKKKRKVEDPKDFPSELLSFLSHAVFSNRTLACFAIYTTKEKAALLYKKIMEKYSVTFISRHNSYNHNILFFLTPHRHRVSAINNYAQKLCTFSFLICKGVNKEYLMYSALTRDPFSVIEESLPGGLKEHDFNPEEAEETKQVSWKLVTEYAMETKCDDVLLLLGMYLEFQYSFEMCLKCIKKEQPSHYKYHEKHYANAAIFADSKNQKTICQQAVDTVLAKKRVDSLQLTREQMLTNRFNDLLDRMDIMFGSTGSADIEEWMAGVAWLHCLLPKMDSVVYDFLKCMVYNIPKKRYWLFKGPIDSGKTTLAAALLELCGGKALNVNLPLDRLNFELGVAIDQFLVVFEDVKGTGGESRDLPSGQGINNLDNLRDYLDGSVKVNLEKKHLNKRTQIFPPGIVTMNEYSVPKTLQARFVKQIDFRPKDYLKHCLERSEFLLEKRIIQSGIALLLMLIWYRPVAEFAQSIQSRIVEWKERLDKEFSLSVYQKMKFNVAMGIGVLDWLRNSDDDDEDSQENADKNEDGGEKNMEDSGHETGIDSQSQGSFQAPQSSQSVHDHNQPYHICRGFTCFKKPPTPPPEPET

Row | β-galactosidase [2] [nmol/min/mg] | β-galactosidase [3] [nmol/min/mg] | Substance | β-galactosidase [1] [nmol/min/mg]
1 | – | – | pGal4-BD-p53 (control plasmid, p53 fused to the Gal4 binding domain) (from UniProt P04386 1-147) | 65.3
2 | 33.6 | 31.8 | pGal4-BD-p40 bait fusion protein comprised of the Gal4 binding domain and a p40 protein (from UniProt P04386 1-147) | –
